Results: article PMC5987255 (Molecular cell, 2018)

B1: mouse core RAG1 (aa 384-1008), E962Q mutant (domain or fragment, UniProt P15919 384-1008, looked up)
chain: VHINKGGRPRQHLLSLTRRAQKHRLRELKIQVKEFADKEEGGDVKAVCLTLFLLALRARNEHRQADELEAIMQGRGSGLQPAVCLAIRVNTFLSCSQYHKMYRTVKAITGRQIFQPLHALRNAEKVLLPGYHPFEWQPPLKNVSSRTDVGIIDGLSGLASSVDEYPVDTIAKRFRYDSALVSALMDMEEDILEGMRSQDLDDYLNGPFTVVVKESCDGMGDVSEKHGSGPAVPEKAVRFSFTVMRITIEHGSQNVKVFEEPKPNSELCCKPLCLMLADESDHETLTAILSPLIAEREAMKSSELTLEMGGIPRTFKFIFRGTGYDEKLVREVEGLEASGSVYICTLCDTTRLEASQNLVFHSITRSHAENLQRYEVWRSNPYHESVEELRDRVKGVSAKPFIETVPSIDALHCDIGNAAEFYKIFQLEIGEVYKHPNASKEERKRWQATLDKHLRKRMNLKPIMRMNGNFARKLMTQETVDAVCELIPSEERHEALRELMDLYLKMKPVWRSSCPAKECPESLCQYSFNSQRFAELLSTKFKYRYEGKITNYFHKTLAHVPEIIERDGSIGAWASEGNQSGNKLFRRFRKMNARQSKCYEMEDVLKHHWLYTSKYLQKFMNAHNA

Tests used:
crystal structure = target: the molecule itself; assay: crystal structure
[1] = target: B1; assay: crystal structure

Row | Binder | binding result (crystal structure) | binding result [1]
1 | B1 | binds | 
2 | mouse core RAG2 (aa 1-359) (domain or fragment, UniProt P21784 1-359, looked up) MSLQMVTVGHNIALIQPGFSLMNFDGQVFFFGQKGWPKRSCPTGVFHFDIKQNHLKLKPAIFSKDSCYLPPLRYPATCSYKGSIDSDKHQYIIHGGKTPNNELSDKIYIMSVACKNNKKVTFRCTEKDLVGDVPEPRYGHSIDVVYSRGKSMGVLFGGRSYMPSTQRTTEKWNSVADCLPHVFLIDFEFGCATSYILPELQDGLSFHVSIARNDTVYILGGHSLASNIRPANLYRIRVDLPLGTPAVNCTVLPGGISVSSAILTQTNNDEFVIVGGYQLENQKRMVCSLVSLGDNTIEISEMETPDWTSDIKHSKIWFGSNMGNGTIFLGIPGDNKQAMSEAFYFYTLRCSEEDLSEDQ |  | binds
